According to PMC2172667:

What was measured:
F-actin = F-actin (UniProt P68135); assay: co-sedimentation
[1] = molecular target: GST-EPLIN-α (recombinant full-length EPLIN-α GST-fusion protein) (UniProt Q9UHB6); assay: pull-down
Chain of GST-EPLIN-α (recombinant full-length EPLIN-α GST-fusion protein) (Q9UHB6 161-759): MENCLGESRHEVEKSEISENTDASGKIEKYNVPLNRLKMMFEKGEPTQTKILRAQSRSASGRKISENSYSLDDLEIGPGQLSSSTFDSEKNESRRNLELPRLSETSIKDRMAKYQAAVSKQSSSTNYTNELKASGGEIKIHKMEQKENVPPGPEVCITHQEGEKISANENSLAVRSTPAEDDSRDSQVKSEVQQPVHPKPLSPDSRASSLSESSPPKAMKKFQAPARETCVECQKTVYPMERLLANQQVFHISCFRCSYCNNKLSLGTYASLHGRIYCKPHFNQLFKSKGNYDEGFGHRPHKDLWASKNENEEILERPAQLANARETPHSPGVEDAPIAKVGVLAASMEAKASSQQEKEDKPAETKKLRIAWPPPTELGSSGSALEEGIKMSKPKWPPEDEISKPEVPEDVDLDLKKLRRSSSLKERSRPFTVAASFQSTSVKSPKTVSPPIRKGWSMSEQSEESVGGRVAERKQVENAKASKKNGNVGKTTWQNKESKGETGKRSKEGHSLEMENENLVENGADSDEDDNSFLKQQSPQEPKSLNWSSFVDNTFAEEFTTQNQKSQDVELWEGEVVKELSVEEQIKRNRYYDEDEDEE

Chain of his-EPLIN-α (Q9UHB6 161-759): as above

| Substance | Kd (F-actin) [nM] | stoichiometry N (actin molecules per his-EPLIN-α) (F-actin) | percent of actin monomers pelleted [1] [%] |
| --- | --- | --- | --- |
| his-EPLIN-α (from UniProt Q9UHB6-2 1-599) (natural protein) | 100 | 2 |  |
| G-actin (from UniProt P68135 1-377) (natural protein) |  |  | 10 |
